“Also recorded” adds a separate entry of the source. Where two headings read alike, the source gives them in different places.
How the values were obtained:
125I-alpha-BTX [1] = type: binding
Experimental: FIG. 2 illustrates the binding of alpha-BTX to alpha1-210 of FIG. 1. (A) Scatchard plot analysis of ^125I-alpha-BTX binding to alpha1-210 fragment. Culture supernatants containing alpha1-210 (40 microliters, 40 ul) were incubated with various concentrations of ^125I-alpha-BTX in 10 ul of PBS-0.2 % bovine serum albumin (BSA), then, after 3 hours incubation at 40° C., the samples were filtered through Whatman DE81 filters, and the bound radioactivity measured on a gamma counter (filter assay). Samples were processed in duplicates. […] (B) The specific binding of the ^125I-alpha-BTX to alpha1-210 fragment was studied in competition experiments involving the simultaneous addition of increasing concentrations of unlabeled toxin. Samples were processed in duplicates. Binding of labeled alpha-BTX in the absence of unlabeled alpha-BTX was taken as the 100% level. (C) Effect of deglycosylation on ^125I-alpha-BTX binding to alpha1-210. In vitro deglycosylation was performed using N-glycosidase F treatment. Aliquots at various reaction time-points were assayed for ^125I-alpha-BTX binding in filter assay experiments. Samples were processed in duplicates (dark columns, N-glycosidase F treatment; light columns, control treatment).
To study the binding of alpha-BTX to alpha1-210 as an indication of correct protein folding, we tested both crude culture supernatants and the purified protein in “filter assay” experiments: Fifty nanograms of purified alpha1-210 or […] of culture supernatant was incubated at […] for 3 h with various concentrations of ^125I-alpha-BTX (specific activity 800,000 cpm/pmole) in a final volume of […] of PBS buffer, pH 7.5, 0.2% BSA. The samples were then diluted with 1 ml of 0.5% Triton X-100 in 20 mM Tris buffer, pH 7.5 (Triton buffer) and immediately filtered through two Whatman DE81 filters prewashed with Triton buffer. The filters were then washed twice with 1 ml of Triton buffer and the bound radioactivity measured on a gamma-counter. Samples without alpha1-210 were used to measure non-specific binding. Specific binding of alpha-BTX was also studied in competition experiments by addition of various amounts of unlabeled alpha-BTX to the sample.

[2] = test system: anti-AChR autoantibodies from MG sera; experiment: Binding of MG patients' autoantibodies to 125I-alpha-BTX-labeled alpha1-210 and hybrid AChR (RIA); design: species or system human
Experimental: 50 MG-positive sera were assayed for binding to alpha1-210 and to a hybrid AChR molecule (HaTbgd) containing human alpha subunit and Torpedo beta, gamma and delta subunits, labeled with ^125I-alpha-BTX. MG sera binding to ^125I-alpha-BTX-alpha1-210 were plotted versus binding to ^125I-alpha-BTX-HaTbgd in a logarithmic scale. […] Samples were processed in duplicates.
70 human sera were screened: 50 MG and 20 healthy controls (5 ul of human sera/sample).

[3] = test system: anti-AChR antibodies from MG sera; experiment: Immunoadsorption of anti-AChR antibodies from MG sera by CNBr-Sepharose-immobilized subunit domains, RIA with human AChR from TE671 cells; type: binding; details: for percentage of anti-AChR antibodies eliminated, best-adsorbed sera: 13 of 64 (20%) MG sera, 2.5 ul serum
Experimental: FIG. 6 illustrates the immunoadsorption of anti-AChR antibodies from MG sera using immobilized alpha1-210 (black bars), gamma1-218 (grey bars) and epsilon1-219 (blank bars). Each subunit has been expressed in the yeast Pichia pastoris and the purified proteins have been covalently immobilized on CNBr-Sepharose beads. 64 MG positive sera were assayed for binding to human AChR after incubation with alpha1-210 immobilized on CNBr-Sepharose (together with BSA) or with just BSA immobilized on the same insoluble matrix. 2.5 ul of each MG patient serum were incubated with 0.2 ug immobilized alpha1-210 mixed with BSA or the same amount of BSA at […] for 2-3h (in a total volume of 0.16 ml) followed by centrifugation. Samples of the supernatants, each containing an amount corresponding to 0.9 ul of the treated MG sera were subsequently used in a typical RIA MG diagnostic test (Lindstrom et al., Meth. Enzymol. 74, 432460, 1981) with human AChR from TE671 cells. The percentage of immunoadsorption was estimated as described in the Example 3. Samples were processed in duplicates. Results shown (black bars) are an average of two experiments. Sera are sorted in decreasing percentage of immunoadsorption to immobilized alpha1-210.
FIG. 7 illustrates the immunoadsorption of anti-AChR antibodies from MG sera against immobilized alpha1-210 (black bars), gamma1-218 (gray bars) and a mix of both immobilized alpha1-210 and gamma1-218 (hatched bars). 9 MG sera were assayed for binding to human AChR after incubation of 20 fmoles anti-AChR MG antibodies with alpha1-210 (1 ug), or gamma1-218 (1 ug) or alpha1-210/gamma1-218 mix (containing 1 ug of each subunit) immobilized on CNBr-Sepharose. Incubation with just BSA immobilized to the same insoluble matrix served as a control to calculate the percent immunoadsorption against each of the subunits and the mix of both. After incubation with the Sepharose-immobilized proteins, sera were screened in a typical RIA experiment using TE671 AChR. The percentage of immunoadsorption was estimated as described in the Example 3. Samples were processed in duplicates. Results shown are an average of two experiments.
Immunoadsorption of MG autoantibodies by immobilized alpha1-210. 0.1 mg alpha1-210 mixed with 1.4 mg BSA was covalently bound to 0.5 gr CNBr-Sepharose according to manufacturer's protocol (Amersham). BSA was simply added to increase the protein/Sepharose ratio because the ratio of recombinant protein to Sepharose beads used would otherwise be too small; BSA is not necessary for larger scale experiments. In parallel, 1.5 mg BSA was bound to the same amount of CNBr-Sepharose under the same conditions as control. 2.5 ul MG patient sera were incubated with 0.2 ug immobilized alpha1-210 mixed with BSA, or the same amount of immobilized BSA alone, at 4° C. for 2-3 h (in a total volume of 0.16 ml) followed by centrifugation for bead precipitation. Samples of the supernatants, each containing an amount corresponding to 0.9 ul of these treated MG sera were subsequently used in a typical RIA MG diagnostic test (Lindstrom et al., Meth. Enzymol. 74, 432460, 1981) with human AChR from TE671 cells. The percentage of immunoadsorption was estimated as the ratio between the reduction in immunoprecipitated radiolabeled human AChR after incubation with alpha1-210 and the immunoprecipitated radiolabeled human AChR without incubation with alpha1-210 (incubation with plain immobilized BSA). 64 MG positive sera were assayed for binding to human AChR after incubation with immobilized alpha1-210 or BSA. […] We also tested immunoadsorption of the same set of MG sera by incubating 0.2 ug immobilized alpha1-210 with a fixed amount of anti-AChR antibodies (20 fmoles in variable volumes of MG sera depending on their titer) rather than a fixed serum volume.
Immunoadsorption of MG autoantibodies by immobilized gamma1-218 or epsilon1-219 domains. […]

alpha1-210 = experiment: Delta1-224 studied together with alpha1-210 in 125I-alpha-BTX binding experiments; design: species or system human
125I-alpha-BTX [4] = experiment: 125I-alpha-BTX filter assay of alpha domain expressed in HEK293 cells (SFV vector); type: binding; details: expressed in HEK293 cells with recombinant SFV-1 vector
Experimental: […] Approximately 2×10^6 transfected cells were allowed to express the protein of interest. Cells and medium supernatant were collected after two days. Cells were washed in cocktail buffer (1×PBS pH7.4 with PMSF. 1 mM, aprotinin 5units/ml, leupeptin 5 micrograms/ml, iodoacetamide 1 mM). The medium supernatant (12 ml) was concentrated […] to a final volume of 2.5 ml and dialysed against PBS buffer at 4° C. To extract the receptor, the cell pellet was resuspended in 0.5 ml of cocktail-2% Triton-X100 and the mixture was left at 4° C. with mild agitation. The mixture was subsequently centrifuged at 15000 g for 15 min and the supernatant was tested for ^125I-alpha-BTX binding. The filter assay technique (as described in Example 1) was used to test whether the expressed protein was secreted in the medium supernatant or retained within the cell (in either the cytoplasm or the membrane).
Having established that the cloned product is functional, the recombinant SFV plasmid is linearized at SpeI site, purified and used in an in vitro mRNA synthesis using the mMESSAGE mMACHINE kit (Ambion Inc.) Approximately 20 micrograms of mRNA produced is obtained and used to electroporate 0.7 ml of 10^7 cells/ml HEK293 cells. We only use the recombinant SFV-1 vector without the helper plasmid at this stage. Both the cells and the supernatant are collected two days post-electroporation. […]

B1: alpha1-210 (protein)
chain: SEHETRLVAKLFKDYSSVVRPVEDHRQVVEVTVGLQLIQLINVDEVNQIVTTNVRLKQQWVDYNLKWNPDDYGGVKKIHIPSEKIWRPDLVLYNNADGDFAIVKFTKVLLQYTGHITWTPPAIFKSYCEIIVTHFPFDEQNCSMKLGTWTYDGSVVAINPESDQPDLSNFMESGEWVIKESRGWKHSVTY
modifications: glycosylated at residue 141
- 125I-alpha-BTX binding after deglycosylation (125I-alpha-BTX [1]): practically totally lost; also recorded: markedly impaired
- binding of 125I-alpha-BTX (in words) (125I-alpha-BTX [1]): high affinity
- Kd (125I-alpha-BTX [1]; read-out: average Kd of 125I-alpha-BTX binding, series of experiments): 5.1 ± 2.4 nM
- Kd (125I-alpha-BTX [1]; read-out: estimated Kd of 125I-alpha-BTX binding, representative experiment): 3.3 nM
- proportion of MG sera with high anti-alpha titers that recognized the protein [2]: 66%
- immunoadsorption with fixed amount of anti-AChR antibodies compared with fixed serum volume ([3]; 0.2 ug immobilized protein, 20 fmoles antibodies in variable serum volumes): identical with the above immunoadsorption results
- percentage of anti-AChR antibodies eliminated, best-adsorbed sera ([3]; 0.2 ug immobilized protein): more than 60%
- percentage of anti-AChR antibodies eliminated, best-adsorbed sera ([3]; 0.2 ug immobilized protein, listed as immobilized alpha domain): more than 60%
- average percentage of anti-AChR antibodies eliminated in all sera tested ([3]; all sera tested): 37%
- percentage of immunoadsorption, intermediate sera ([3]; another 24 sera (37%) of 64): 20-60%
- immunoadsorption of serum no. 3 ([3]; serum no. 3, 1 ug of each immobilized subunit, 20 fmoles antibody): 54%
- amount of antibody eliminated by 1 ug immobilized protein ([3]; titration experiments, 0.25 ml serum of titer 5 nM): ≥ 1250 fmol
- volume of MG serum from which 1 ug immobilized protein eliminates the anti-alpha antibodies ([3]; titration experiments, MG serum of titer 5 nM): at least 0.25 ml

B2: delta1-224: N-terminal extracellular domain of human muscle AChR delta subunit expressed in Pichia pastoris, FLAG epitope (protein)
chain: DYKDDDDKLNEEERLIRHLFQEKGYNKELRPVAHKEESVDVALALTLSNLISLKEVEETLTTNVWIEHGWTDNRLKWNAEEFGNISVLRLPPDMVWLPEIVLENNNDGSFQISYSCNVLVYHYGFVYWLPPAIFRSSCPISVTYFPFDWQNCSLKFSSLKYTAKEITLSLKQDAKENRTYPVEWIIIDPEGFTENGEWEIVHRPARVNVDPRAPLDSPSRQDITFYLIIRRK
modifications: glycosylated
- immunoadsorption of anti-AChR antibodies (in words) ([3]; immobilized on Sepharose-CNBr): lower but very significant percentages; also recorded: large fractions
- interaction between recombinant subunit domains (alpha1-210): temporary weak interaction

B3: alpha 1-210: extracellular domain of human alpha AChR with ApoE leader and six histidines, expressed in HEK293 cells by SFV vector (protein)
chain: B1 chain
modifications: glycosylated at residue 141
- ability to bind 125I-alpha-BTX (125I-alpha-BTX [4]): good ability to bind
